Assay results from the Human Domainome abundance scans (Beltran et al. 2025).

B1: Ubiquitin-protein ligase residues 30 to 86; numbered along this chain, Q05086 (parent)
chain: KHLIERYYHQLTEGCGNEACTNEFCASCPTFLRMDNNAAAIKALELYKINAKLCDPH
B2: Chromodomain-helicase-DNA-binding protein 3, residues 374 to 426; numbered along this chain, Q12873 (parent)
chain: YETDHQDYCEVCQQGGEIILCDTCPRAYHLVCLDPELDRAPEGKWSCPHCEKE

Variants of: B1
Test: abundance fitness (aPCA) (normalised: wild type 0, dead -1); higher = more abundant; growth selection in yeast, the domain comes from the species named
Conditions: Homo sapiens

Abundance fitness of substitutions, site by site:
H2: L -0.005 | C -0.204 | M -0.03 | V -0.044 | P -0.116 | Y 0.051 | S 0.019 | Q 0.025 | K -0.021 | E -0.055 | R -0.025 | D 0.082 | A -0.041 | T -0.085 | I 0.229 | W -0.542
E5: L -0.123 | N 0.058 | H -0.04 | M -0.105 | I -0.142 | R 0.015 | C -0.125 | P -0.068 | K 0.037 | W -0.08 | A -0.116 | Q 0.037 | T -0.005 | F -0.112 | G -0.042 | S -0.01 | V -0.211
L3: N -0.057 | Q 0.014 | I -0.039 | M 0.048 | P -0.204 | K 0.003 | C -0.005 | Y -0.021 | R -0.077 | E -0.206 | G -0.129 | W -0.049 | D -0.264 | V -0.474 | S -0.004 | A -0.334
R6: M -0.079 | C -0.271 | E -0.078 | V -0.044 | A -0.021 | S -0.026 | K 0.029 | L -0.097 | Y -0.209 | F -0.147 | I -0.151 | H -0.027 | N -0.006 | W -0.292 | T -0.017 | P 0.011 | D -0.028
Y7: N -0.658 | W -0.184 | F -0.034 | C -0.65 | R -0.925 | S -0.799 | A -0.448 | G -0.77 | Q -0.781 | L -0.154 | E -0.963 | H -0.289 | K -0.796 | M -0.215 | D -0.683
Q10: E -0.868 | P -0.86 | R -0.07 | G -0.311 | L -0.198 | I -0.15 | D -0.485 | K -0.5 | N -0.127 | F -0.329 | T -0.123 | C -0.274 | A -0.13 | H -0.148 | V -0.253 | S -0.093 | Y -0.277 | W -0.765
H9: S 0.017 | P -0.771 | L 0.093 | T 0.032 | I 0.015 | C -0.034 | R 0.025 | D -0.189 | E -0.131 | W -0.055 | G -0.008 | Y -0.123 | M -0.013 | F -0.12 | K 0.077 | A 0.007 | V -0.014 | Q 0.05
I4: L -0.159 | M -0.087 | V -0.047 | G -0.117 | E -0.032 | K 0.059 | D -0.116 | T 0.064 | Y -0.029 | Q 0.058 | S 0.012 | W -0.208 | R 0.004 | C -0.113 | P -0.093 | N -0.042 | F -0.15 | A -0.027
Y8: S -0.06 | G -0.212 | N -0.097 | K 0.054 | A -0.06 | W -0.181 | Q 0.116 | I 0.018 | L 0.045 | P -0.757 | V -0.015 | R 0.028 | D -0.513 | F -0.138 | T 0.091 | H -0.015 | E -0.027
K1: P -0.719 | R -0.102 | M -0.253 | V -0.517 | N -0.397 | F -0.53 | T -0.1 | E -0.368 | Y -0.31 | G -0.476 | A -0.757 | S -0.833 | L -0.577 | C -0.33

Variants of: B2
Test: as above
Conditions: Homo sapiens

Abundance fitness: each site, then its substitutions
K52: T 0.01 | D -0.413 | H -0.38 | V -0.357 | R 0.013 | L -0.308 | M -0.156 | A -0.264 | G -0.137 | E -0.308 | W -0.487 | P 0.104 | S 0.049 | N -0.024
W45: E -0.099 | M -0.268 | N 0.035 | H -0.101 | Y 0.171 | T -0.143 | K -0.072 | I -0.221 | S -0.224 | Q 0.19 | L -0.218 | C -0.182 | R -0.204 | F 0.158 | A -0.037 | G -0.312
E51: W -0.501 | L -0.039 | S -0.158 | M -0.396 | Q -0.533 | C -0.137 | D -0.37 | P -0.194 | F -0.205 | R -0.215 | I -0.438 | A -0.215 | T -0.156 | Y -0.554
S46: T -0.073 | F -0.104 | H -0.526 | I 0.12 | G -0.03 | V -0.085 | L -0.033 | K -0.084 | Y 0.08 | C -0.308 | A -0.064 | E -0.122 | W -0.043 | Q 0.127 | R -0.037 | M -0.186 | P -0.327 | D -0.135
K44: R 0.043 | N -0.492 | G 0.101 | I 0.363 | F -0.136 | D -0.329 | L -0.011 | C -0.071 | V -0.39 | E -0.096 | T -0.304 | S 0.077 | Q 0.038 | W -0.525 | P -0.264 | M -0.011 | Y -0.395
H49: T -0.011 | M -0.797 | K -0.127 | R -0.143 | C -0.456 | V 0.126 | A -0.183 | Q -0.034 | W -0.234 | E -0.062 | Y -0.32 | G -0.033 | N 0.217 | I 0.221 | L -0.128 | D -0.185 | F -0.244 | P -0.334
G43: L -0.343 | N 0.204 | V 0.054 | M -0.039 | S -0.043 | Y -0.277 | I -0.368 | P 0.057 | T -0.128 | Q -0.001 | R -0.142 | K 0.119
P48: E -0.074 | G -0.031 | C -0.203 | F -0.528 | V -0.139 | D -0.416 | M -0.07 | H -0.599 | A -0.002 | S -0.217 | K -0.109 | W -0.358 | T -0.24 | Q -0.078 | N -0.014
C47: G -0.767 | K -1.02 | V -0.753 | T -0.931 | R -0.835 | W -0.847 | A -1.06 | D -0.512 | Y -0.972 | F -0.465 | Q -0.835 | H -1.07 | P -1.05 | E -1.08 | S -0.814 | M -0.657
C50: W -0.565 | E -0.547 | A -0.417 | I -0.564 | H -0.291 | P -0.424 | N -0.664 | D -0.176 | F -0.682 | G -0.383 | V -0.598 | L -0.468 | K -0.923 | S -0.66 | Q -0.57 | Y -0.791
E53: H -0.426 | G -0.118 | Q -0.118 | I -0.37 | R -0.276 | T -0.187 | V -0.309 | W -0.401 | C -0.584 | D -0.374 | S -0.48 | M -0.19
